Laboratory results from patent US11434278.

Biological target: 5T4 antigen on the cell surface (A431 cells and 5T4 over-expressing recombinant MDA-MB-231 cells) (human) (UniProt Q13641)
Test: flow cytometry (MFI) on 5T4-expressing cells, anti-Fc FITC detection

Chain of 5T4 antigen on the cell surface (A431 cells and 5T4 over-expressing recombinant MDA-MB-231 cells) (human) (Q13641 32-420): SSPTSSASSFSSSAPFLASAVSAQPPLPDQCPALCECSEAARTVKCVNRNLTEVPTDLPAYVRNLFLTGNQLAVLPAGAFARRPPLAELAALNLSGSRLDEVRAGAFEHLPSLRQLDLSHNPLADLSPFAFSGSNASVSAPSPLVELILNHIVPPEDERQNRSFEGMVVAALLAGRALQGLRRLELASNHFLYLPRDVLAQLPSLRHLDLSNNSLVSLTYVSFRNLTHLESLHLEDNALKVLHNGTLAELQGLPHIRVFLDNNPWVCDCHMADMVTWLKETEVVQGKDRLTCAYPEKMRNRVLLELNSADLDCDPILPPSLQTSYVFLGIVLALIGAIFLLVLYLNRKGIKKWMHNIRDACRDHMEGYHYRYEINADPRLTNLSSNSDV

- fold less binding than the anti-5T4 scFvFc molecules: 200 fold less
Substance: non-binding scFvFc fusion protein
